Measured values reported in the RNAGym collection of RNA variant scans (doi:10.7554/elife.80360).

B1: Twister Ribozyme (parent)
chain: AACACUGCCAAUGCCGGUCCCAAGCCCGGAUAAAAGUGGAGGGGGCGG

Variants of: B1
Experiment: self-cleavage, relative activity (ratio to wild type); higher = more cleavage; co-transcriptional

First: AACGCUGCCAAUGCCGGUCCCAAGCCCGGAUAAAAGUGGGGGGGGCGG
Second: AACGCUGCCAAUGCCGGUCCCAAGCCCGGAUAAAAGUGGUGGGGGCGG
The self-cleavage of the first is higher: 0.17 for the first, 0.163 for the second.

Compared with AACGCUGCCAAUGCCGGUCCCAAGCCCGGAUAAAAGUGGAGGGGACGG, AACCCAGCCAAUGCCGGUCCCAAGCCCGGAUAAAAGUGGAGGGGGCGG is lower in self-cleavage: 0.955 for the first, 0.0472 for the second.

First: AACGCUGCCAAUGCCGGUCCCAAGCCCGGAUAAAAGUGAAGGGGGCGG
Second: AACGCUGCCAAUGCCGGUCCAAAGCCCGGAUAAAAGUGGAGGGGGCGG
The self-cleavage of the first is higher: 0.322 for the first, 0.0832 for the second.

First: AACGCUGCCAAUGCCGGUCCGAAGCCCGGAUAAAAGUGGAGGGGGCGG
Second: AACCCUGCCAAUGCCGGUCCCAAGCCCGGAUAAAAGUGAAGGGGGCGG
The self-cleavage of the first is lower: 0.0683 for the first, 0.101 for the second.

First: AACGGUGCCAAUGCCGGUCCCAAGCCCGGAUAAAAGUGGAGGGGGCGG
Second: AACGUUGCCAAUGCCGGUCCCAAGCCCGGAUAAAAGUGGAGGGGGCGG
The self-cleavage of the first is lower: 0.274 for the first, 0.855 for the second.

Compared with AACGAUGCCAAUGCCGGUCCCAAGCCCGGAUAAAAGUGGAGGGGGCGG, AACCCUGCCAAUGCCGGUCCCAAGCCCAGAUAAAAGUGGAGGGGGCGG is lower in self-cleavage: 0.892 for the first, 0.12 for the second.

First: AACCCUGCCAAUGCCGGUCCCAAGCCGGGAUAAAAGUGGAGGGGGCGG
Second: AACCCUGCCAAUACCGGUCCCAAGCCCGGAUAAAAGUGGAGGGGGCGG
The self-cleavage of the first is higher: 0.0637 for the first, 0.0606 for the second.

Compared with AACCCUGCCAAUUCCGGUCCCAAGCCCGGAUAAAAGUGGAGGGGGCGG, AACCCUGCCAAUCCCGGUCCCAAGCCCGGAUAAAAGUGGAGGGGGCGG is lower in self-cleavage: 0.072 for the first, 0.0474 for the second.

Going from AACCCUGCCAAUGCCGGUCCCAAGCCCGGAUAAAAGUGGAGGGGUCGG to AACCCUGCCAAUGCCGGUCCCAAGCCCGGAUAAAAGUGGAGGGGCCGG, the self-cleavage rises from 0.0976 to 0.16.

Compared with AACCCUGCCAAUGCCGGUCCCAAGCCCGGAUAAAAGUGGAGGGGACGG, AACGCUGCCAAUGUCGGUCCCAAGCCCGGAUAAAAGUGGAGGGGGCGG is higher in self-cleavage: 0.145 for the first, 0.957 for the second.

Compared with AACGCUGCCAAUGGCGGUCCCAAGCCCGGAUAAAAGUGGAGGGGGCGG, AACGCUGCCAAUGACGGUCCCAAGCCCGGAUAAAAGUGGAGGGGGCGG is higher in self-cleavage: 0.276 for the first, 0.76 for the second.

Compared with AACGCUGCCAAAGCCGGUCCCAAGCCCGGAUAAAAGUGGAGGGGGCGG, AACGCUGCGAAUGCCGGUCCCAAGCCCGGAUAAAAGUGGAGGGGGCGG is lower in self-cleavage: 1.17 for the first, 0.601 for the second.

Compared with AACGCUGCUAAUGCCGGUCCCAAGCCCGGAUAAAAGUGGAGGGGGCGG, AACGCUGCCAAUGCCGGUCCCGAGCCCGGAUAAAAGUGGAGGGGGCGG is lower in self-cleavage: 0.549 for the first, 0.0987 for the second.

Compared with AACGCUGCCAAUGCCGGUCCCUAGCCCGGAUAAAAGUGGAGGGGGCGG, AACGCUGCCAAUGCCGGUCCCCAGCCCGGAUAAAAGUGGAGGGGGCGG is higher in self-cleavage: 0.69 for the first, 1.01 for the second.

First: AACCCUCCCAAUGCCGGUCCCAAGCCCGGAUAAAAGUGGAGGGGGCGG
Second: AACGCUGCCAAUGCCGGUCCCAAGCCCGGAUAAAAGUGGAGGAGGCGG
The self-cleavage of the first is lower: 0.0903 for the first, 0.165 for the second.

First: AACGCUGCCAAUGCCGGUCCCAAGCCCGGAUAAAAGUGGAGGCGGCGG
Second: AACGCUGCCAAUGCCGGUCCCAAGCCCGGAUAAAAGUGGAGGUGGCGG
The self-cleavage of the first is lower: 0.168 for the first, 0.233 for the second.

First: AACCCUGCCAAUGCCGGUCCCAAGCCCGGAUAAAAGUGGAGGGCGCGG
Second: AACCCUGCCAAUGCCGGUCCCAAGCCCGGAUAAAAGUGGAGGGUGCGG
The self-cleavage of the first is lower: 0.0939 for the first, 0.134 for the second.

First: AACGCUGCCAAUGCCGGUCCCAGGCCCGGAUAAAAGUGGAGGGGGCGG
Second: AACGCUGCCAAUGCCGGUCCCAAGCCCGGAUAAAAGUGGAGGGGGAGG
The self-cleavage of the first is lower: 0.384 for the first, 0.785 for the second.

First: AACGCUGCCAAUGCCGGUCCCAAGCCCGGAUUAAAGUGGAGGGGGCGG
Second: AACGCUGCCAAUGCCGGUCCCAAGCCCGGAUCAAAGUGGAGGGGGCGG
The self-cleavage of the first is higher: 0.945 for the first, 0.719 for the second.

Going from AACGCUGCCAAUGCCGGUCCCAAGCCCGGAUAAAAGUGGAGGGGGCGU to AACGCUGCCCAUGCCGGUCCCAAGCCCGGAUAAAAGUGGAGGGGGCGG, the self-cleavage falls from 0.979 to 0.762.

Going from AACGCUGCCGAUGCCGGUCCCAAGCCCGGAUAAAAGUGGAGGGGGCGG to AACGCUGCCAAUACCGGUCCCAAGCCCGGAUAAAAGUGGAGGGGGCGG, the self-cleavage falls from 0.892 to 0.563.

Compared with AACCCUGCCAAUGCCCGUCCCAAGCCCGGAUAAAAGUGGAGGGGGCGG, AACCCUGCCAAUGCCUGUCCCAAGCCCGGAUAAAAGUGGAGGGGGCGG is higher in self-cleavage: 0.0536 for the first, 0.107 for the second.

Going from AACGCUGCCAAUGCCGAUCCCAAGCCCGGAUAAAAGUGGAGGGGGCGG to AACGCUGCCAAUGCCGUUCCCAAGCCCGGAUAAAAGUGGAGGGGGCGG, the self-cleavage falls from 0.473 to 0.0875.

Going from AACGCUGCCAAUGCCGGUCCCAAGCCCGGAUAAAAGUGGAGCGGGCGG to AACGCUGCCAAUGCCGGUCCCAAGCCCGGAUAAAAGUGGAGGGGGCGG, the self-cleavage rises from 0.186 to 1.

Compared with AACGCUGCCAAUGCCGGUCCCAAGCCCGGAUAAAAGUGGAGGGCGCGG, AACGCUGCCAAUGCCGGUCCCAAGCCCGGAUAAAAGUGGAGGGUGCGG is higher in self-cleavage: 0.645 for the first, 0.968 for the second.

Going from AACCCUGCCAAUGCCGGUCCCAAGCCCGGAUAAAAGUGGAGGGGGAGG to AACCCUGCCAAUGCCGGUCCCAAGCCCGGAUAAAAGUGGAGGGGGGGG, the self-cleavage rises from 0.063 to 0.142.

First: AACGCUGCCAAUGCCGGUCCCAAGCCCAGAUAAAAGUGGAGGGGGCGG
Second: AACGCUGCCAAUGCCGGUCCCAAGCCCUGAUAAAAGUGGAGGGGGCGG
The self-cleavage of the first is lower: 0.58 for the first, 0.644 for the second.
